These are literature values, as cited in patent US20200378979.

In series [1] the target is T1, thrombin (cited work) (UniProt P00734+P00734). Kind of series: FP. The conditions noted are these: 5'-FAM; CITED Van Riesen et al. 2018.
Series [2] deals with T1, thrombin (cited work). Kind of series: ITC. The conditions noted are these: CITED Pagano et al. 2008.

As usually defined, the Kd is a measure of binding affinity in units of concentration. With GGTTGGTGTGGTTGG [5'-FAM-TBA], in the series with thrombin (cited work) [1], the Kd was 4.9 µM. For GGTTGGTGTGGTTGG [native TBA], the Kd with thrombin (cited work) [2] was 0.33 µM.
